Laboratory results taken from FireProtDB (doi:10.1002/pro.346).

settings: Homo sapiens; pH 7.4; 25 °C; GdnHCl; CD; KPi 50 mM; structure 1TIT

Compared with Titin Y12685G, Q8WZ42, Titin Y12685F, Q8WZ42 is lower in “ddG of mutation (higher = less stable)” value: 0.8 kcal/mol for the first, 0.4 kcal/mol for the second.

Going from Titin Y12685S, Q8WZ42 to Titin Y12685P, Q8WZ42, the “ddG of mutation (higher = less stable)” value rises from 0.2 kcal/mol to 2.2 kcal/mol.

Titin Y12685G, Q8WZ42 and Titin Y12685F, Q8WZ42 are the same in denaturant m value: 2.2 kcal/mol/M for the first, 2.2 kcal/mol/M for the second.

Titin Y12685S, Q8WZ42 and Titin Y12685P, Q8WZ42 are the same in denaturant m value: 2.2 kcal/mol/M for the first, 2.2 kcal/mol/M for the second.

Titin Y12685G, Q8WZ42 and Titin Y12685F, Q8WZ42 are within 1.5-fold of each other in “denaturant midpoint (higher = more stable)” value: 2.3 M for the first, 2.5 M for the second.

Compared with Titin Y12685S, Q8WZ42, Titin Y12685P, Q8WZ42 is 1.5-fold lower in “denaturant midpoint (higher = more stable)” value: 2.6 M for the first, 1.7 M for the second.

First: Titin Y12685G, Q8WZ42
Second: Titin Y12685F, Q8WZ42
The unfolding free energy of the first is lower: 5.1 kcal/mol for the first, 5.5 kcal/mol for the second.

Going from Titin Y12685S, Q8WZ42 to Titin Y12685P, Q8WZ42, the unfolding free energy falls from 5.7 kcal/mol to 3.7 kcal/mol.
